From patent US20220380446A1 (ABL BIO, published 2022) come the findings set out here.

Substitutions are numbered along the chain they refer to. Read-outs that look alike come from different tables or passages of the source.

The target in experiment [1] is T1, human α-synuclein pre-formed fibrils (Human Alpha Synuclein Pre-formed Fibrils Type II, StressMarq SPR-317) (human, UniProt P37840 1-140). As to the kind of experiment: cell-based or functional assay.
In experiment [2] the target is T1, human α-synuclein pre-formed fibrils …. As to the kind of experiment: sandwich ELISA, antibody coated, α-syn PFF added, 7B7-biotin detection. How it is done: (§1) Specifically, the antibodies were diluted with PBS by six-fold serial dilution from 400 nM to 0.009 nM. The diluted antibodies were added to a 96-well plate at 100 μL/well for coating. The plate was sealed and incubated at 4° C. for 16 hours. After washing with phosphate-buffered saline with Tween® (PBS-T; 0.05% Tween® 20) five times, the plate was blocked with 5% BSA in PBS 200 μL/well at 37° C. for 2 hours. After washing with PBS-T five times, α-syn PFF (2 μg/mL, 100 μL/well in 2% BSA in PBS) was added to the plate and incubated at 37° C. for 2 hours. After washing with PBS-T five times, 7B7-biotin antibody (anti-α-syn antibody; 1 μg/mL/100 μL/well, in 2% BSA in PBS) was added and incubated at 37° C. for 2 hours. After washing with PBS-T five times, the plate was incubated with horseradish peroxidase (HRP)-bound streptavidin in PBS with 2% BSA (1:5000, 1 mg/mL stock, 20 ng/well, 100 μL/well) at 37° C. for 1 hour. After washing with PBS-T five times, 3,3′,5,5′-tetramethylbenzidine (TMB) (100 μL/well) was added and incubated at room temperature for 5 minutes. The reaction was stopped by the addition of 0.5 N H₂SO₄ (50 μL/well). Optical absorbance at 450 nm was measured by using a plate reader, with absorbance at 650 nm subtracted from the reading.

The target is the same in experiment [3]. Described as above. The protocol:
as §1
This is another data set of the same source.

The target is the same in experiment [4]. The description is as above. The protocol: as §1
The source holds these as a separate data set.

Experiment [5] has the same target. The description is as above. The protocol:
as §1
This is another data set of the same source.

Experiment [6] shares this target. Described as above. How it is done: as §1
The source holds these as a separate data set.

Experiment [7] shares this target. As to the kind of experiment: SPR Biacore T200, antibody captured on Protein A chip, α-syn PFF analyte, 1:1 model. The protocol:
(§2) The equipment used was Biacore® (GE Healthcare, Model T200). Protein A (GE Healthcare, Cat: 29-1275-56) was used as a chip, 10 mM glycine-HCl pH 1.5 (GE Healthcare, Cat: BR-1003-54) was used as a regeneration buffer, and HBS-EP was used as a running buffer and an analyte dilution and sample dilution buffer. […] A capture phase was carried out at a contact time of 60 seconds and a flow rate of 30 μL/min was used for a stabilization period of 60 seconds, with the target resonance units (RU) of fibril set to 10 (theoretical). In an association phase, the association time was set to 60 seconds and a flow rate was set to 60 μL/min. In a dissociation phase, the dissociation time was set to 180 seconds, and a flow rate was set to 60 μL/min. In a regeneration phase, the flow rate was set to 30 μL/min, and the regeneration time was set to 60 seconds. A 1:1 binding model was used for fitting, and the Biacore® T200 Evaluation software (GE Healthcare) was used for the evaluation.
(SPR reads the build-up and loss of mass on a sensor chip optically.)

Experiment [8] shares this target. The experiment is described as above. The protocol: as §2
This is another data set of the same source.

In experiment [9] the target is human α-synuclein oligomers (Dopamine HCL Stabilized Human Recombinant Alpha Synuclein Oligomers, StressMarq … (human, UniProt P37840 1-140)). As to the kind of experiment: sandwich ELISA, antibody coated, oligomeric α-syn added, 7B7-biotin detection. How it is done: Human α-syn oligomers from StressMarq (Dopamine HCL Stabilized Human Recombinant Alpha Synuclein Oligomers, SPR-466) was used as the oligomeric α-syn in the assay.
In this sandwich ELISA, test antibodies were diluted with PBS by five-fold serial dilution from 80 nM to 0.005 nM. The serially diluted antibodies were added to a 96-well plate at 100 μL/well for coating. The plate was sealed and incubated at 4° C. for 16 hours. After washing with PBS-T five times, the plate was blocked with 5% BSA in PBS 200 μL/well at 37° C. for 2 hours. After washing with PBS-T five times, oligomeric α-syn (2 μg/mL, 100 μL/well in 2% BSA in PBS) was added and incubated at 37° C. for 2 hours. After washing with PBS-T five times, 7B7-biotin antibody (1 μg/mL, 100 μL/well, in 2% BSA in PBS) were added and incubated at 37° C. for 2 hours. After washing with PBS-T five times, the plate was incubated with Streptavidin-HRP in 2% BSA in PBS (1:5000, 1 mg/mL stock, 20 ng/well, 100 μL/well) at 37° C. for 1 hour. After washing with PBS-T five times, TMB (100 μL/well) was added and incubated at RT for 5 minutes. The reaction was stopped by the addition of 0.5 N H₂SO₄ (50 μL/well).
A general note: In an ELISA, binding on a coated surface is turned into a signal by an enzyme label.

Experiment [10] has as its target T1, human α-synuclein pre-formed fibrils …. As to the kind of experiment: SPR Biacore T200, antibody captured on Protein A chip, α-syn PFF analyte, 1:1 model. How it is done:
as §2
This is another data set of the same source.

B1: chimeric 1E4 antibody (antibody, V domains shown)
VH: QVQLQQSGAELVRPGTSVKVSCKASGYAFTNYLIEWVKQRPGQGLEWIGVINPGSGGTNYNEKFKGKATLTADKSSSTAYMQLSSLTSDDSAVYFCASGNYDTYWGQGTLVTVSA
VL: DVVMTQTPLSLPVSLGDQASISCRSSQSLVHSNGNTYLHWYLQKPGQSPKLLIYKVSNRFSGVPDRFSGSGSGTDFTLKISRVEAEDLGVYFCSQSTHVPRTFGGGTKLEIK
notes: VH and VL of mouse 1E4 with human IgG1 and kappa constant regions; also called ch1E4; Ch1E4
One may read the EC50 as the concentration giving half of the maximal effect. Broadly, the Kd is the equilibrium constant for the complex coming apart. Low readings indicate higher affinity, high ones lower affinity. The term koff denotes the rate constant with which the complex falls apart. In general, kon refers to a measure of how fast the partners come together. A higher kon goes with faster complex formation. In the case of B1, the “phagocytosis of α-syn PFF by BV-2 cells (gMFI, FACS)” value in experiment [1] was determined as 2 fold against ch9E4. In addition, the EC50 in experiment [2] was found to be 0.876 nM; in experiment [3] it was 0.209 nM; in [4] it was 0.554 nM; in [5], 0.484 nM; in [6] it was 1.61 nM. In addition, the Kd in experiment [7] and in experiment [8] was 0.0519 nM in each case. Besides, the koff in [7] and in experiment [8] was 0.00054 s⁻¹ each time. The kon in [7] and in experiment [8] was 1.04e+07 M⁻¹ s⁻¹ in each case.

B2: hu1E4(V9_VL4) (antibody, human IgG1, V domains shown)
VH: QVQLVQSGAEVKKPGASVKVSCKASGYTFTNYLIEWVRQAPGQGLEWIGVINPGSGGTNYNEKFKGRATLTADKSISTAYMELSRLRSDDTAVYYCASGNYDTYWGQGTLVTVSS
VL: B1 VL with T7S, S14T, D17Q, Q18P, L42Q, K44R, K50R, L88V, F92Y, L109V
notes: Monospecific; human IgG1 and kappa constant regions
As for B2, a half-maximal effect in [3] (EC50) was put at 0.114 nM. In experiment [7], this molecule yielded a Kd of 0.096 nM, a koff of 0.00137 s⁻¹ and a kon of 1.42e+07 M⁻¹ s⁻¹.

B3: hu1E4(V1_VL1) (antibody, human IgG1, V domains shown)
VH: B2 VH with I48M, A68V, L70M, A72R, K74T
VL: B1 VL with V2I, P12S, S14T, L15P, D17Q, Q18P, K50Q, L88V, F92Y, G105Q
notes: Monospecific; fused to human IgG1 and kappa constant regions; also called humanized 1E4(V1_VL1); hu1E4(Ver.1_VL1)
B3: in experiment [2], a half-maximal response (EC50) required 0.619 nM. In experiment [6], this molecule displayed an EC50 of 1.1 nM. Further, in experiment [9], the EC50 was 3.46 nM and the Saturation point is 3.16. Besides, in experiment [7], the Kd stood at 0.0276 nM, the koff was 0.000439 s⁻¹ and the kon was 1.59e+07 M⁻¹ s⁻¹. In experiment [10], the Kd came out at 0.0302 nM, the koff turned out to be 0.000415 s⁻¹ and the kon is 1.38e+07 M⁻¹ s⁻¹.

B4: hu1E4(V8_VL4) (antibody, human IgG1, V domains shown)
VH: B2 VH with I48M, A68V, L70M
VL: B1 VL with T7S, S14T, D17Q, Q18P, L42Q, K44R, K50R, L88V, F92Y, L109V
notes: as for B2
B4 gave a 50% effective concentration (EC50) in [3] of 0.139 nM. In experiment [7], this molecule registered a Kd of 0.051 nM, a koff of 0.000854 s⁻¹ and an on-rate (kon) of 1.68e+07 M⁻¹ s⁻¹.
